# Measurements published in publication PMC7697860.
# Where “and” joins values, the source holds several entries; their conditions need not be identical. Equal values may be shown once.
# How the values were obtained:
# [1] = target: PfPV1 with Strep-tag at the C-terminus (PfPV1-Strep) (Plasmodium falciparum 3D7); assay: AUC
# [2] = target: PfPV1 with Strep-tag at the C-terminus (PfPV1-Strep) (Plasmodium falciparum 3D7); assay: native gel or EMSA
# [3] = target: PfPV1 with Strep-tag at the C-terminus (PfPV1-Strep) (Plasmodium falciparum 3D7); assay: […] (pH 6.8), 200 mM NaCl, 0.5 mL/min
# [4] = target: PfPV1 with Strep-tag at the C-terminus (PfPV1-Strep) (Plasmodium falciparum 3D7); assay: negative-stain electron microscopy with 2D classification
substance,measurement,setting,value
PfPV1 with Strep-tag at the C-terminus (PfPV1-Strep) (natural protein),stoichiometry N,[1],4 and 3 and 2
same,"weight fraction w of the component assigned to the tetramer (A4, 222 kDa)",[1],24%
same,"weight fraction w of the component assigned to the tetramer (B3, 215 kDa)",[1],17.5%
same,"weight fraction w of the component assigned to the trimer (A3, 139 kDa)",[1],6.8%
same,"weight fraction w of the component assigned to the trimer (B2, 141 kDa)",[1],48.1%
same,stoichiometry N,[2],3
same,stoichiometry N,[3],4 and 3
same,stoichiometry N,[4],4
